Molecular target: T1, 6xHis-WRKY40 (Arabidopsis thaliana, UniProt Q9SAH7 1-302)
T1 sequence: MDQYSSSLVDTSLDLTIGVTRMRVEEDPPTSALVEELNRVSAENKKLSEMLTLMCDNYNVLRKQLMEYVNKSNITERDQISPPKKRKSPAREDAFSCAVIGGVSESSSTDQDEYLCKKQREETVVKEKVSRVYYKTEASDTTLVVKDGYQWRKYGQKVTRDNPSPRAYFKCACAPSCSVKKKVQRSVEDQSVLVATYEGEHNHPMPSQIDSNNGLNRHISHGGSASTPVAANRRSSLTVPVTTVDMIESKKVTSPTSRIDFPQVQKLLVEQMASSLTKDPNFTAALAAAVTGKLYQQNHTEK
Experiment: EMSA; 150 ng weak band, 300 ng much stronger band; about 5 ng probe; unlabeled probe competitor significantly reduced binding
Conditions: protein: recombinant; tags: N-terminal 6xHis (pET28b, NdeI/XhoI); label: 32P 5' end (T4 PNK); blunt (implied by two complementary oligonucleotides)

B1: Ipt promoter probe (-184 to -135) (dsDNA)
DNA 1: GATTTAGTCAGCCTTATTTGACTTAAGGGTGCCCTCGTTAGTGACAAATT
DNA 2: AATTTGTCACTAACGAGGGCACCCTTAAGTCAAATAAGGCTGACTAAATC
binding result: binds

— publication PMC4304707, “Regulation of Oncogene Expression in T-DNA-Transformed Host Plant Cells”
